Laboratory results taken from patent publication US20040091887.

T1: bovine fibrinogen, P02672
T1 chain 1: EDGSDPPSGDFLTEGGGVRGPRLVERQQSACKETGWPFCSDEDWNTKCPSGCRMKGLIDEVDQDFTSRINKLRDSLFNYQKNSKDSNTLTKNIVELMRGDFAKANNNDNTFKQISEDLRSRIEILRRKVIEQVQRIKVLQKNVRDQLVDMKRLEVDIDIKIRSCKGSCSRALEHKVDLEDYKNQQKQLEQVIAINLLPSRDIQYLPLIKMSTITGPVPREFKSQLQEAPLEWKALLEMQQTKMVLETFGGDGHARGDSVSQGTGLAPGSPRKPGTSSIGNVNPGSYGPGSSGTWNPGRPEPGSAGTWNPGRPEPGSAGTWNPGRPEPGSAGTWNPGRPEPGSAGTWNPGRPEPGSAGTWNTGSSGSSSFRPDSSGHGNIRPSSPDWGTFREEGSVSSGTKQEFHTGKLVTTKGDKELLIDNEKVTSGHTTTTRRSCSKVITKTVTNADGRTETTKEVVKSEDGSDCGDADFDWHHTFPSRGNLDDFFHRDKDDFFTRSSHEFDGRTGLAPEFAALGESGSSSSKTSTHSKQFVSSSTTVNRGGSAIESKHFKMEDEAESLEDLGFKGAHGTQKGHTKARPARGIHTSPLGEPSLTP
T1 chain 2: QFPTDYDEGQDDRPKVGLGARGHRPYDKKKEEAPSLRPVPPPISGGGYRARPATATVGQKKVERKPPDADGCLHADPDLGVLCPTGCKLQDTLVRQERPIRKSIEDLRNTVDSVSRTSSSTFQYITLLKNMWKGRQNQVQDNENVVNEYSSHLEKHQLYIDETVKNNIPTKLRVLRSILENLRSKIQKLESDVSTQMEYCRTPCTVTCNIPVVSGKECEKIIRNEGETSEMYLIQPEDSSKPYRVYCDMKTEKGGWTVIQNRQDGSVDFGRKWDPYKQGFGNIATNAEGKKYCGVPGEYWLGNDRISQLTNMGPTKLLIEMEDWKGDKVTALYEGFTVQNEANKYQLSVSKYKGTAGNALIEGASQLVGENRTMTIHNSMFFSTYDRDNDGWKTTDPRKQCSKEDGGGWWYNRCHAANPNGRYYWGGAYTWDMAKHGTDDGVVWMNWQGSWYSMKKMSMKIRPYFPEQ
T1 chain 3: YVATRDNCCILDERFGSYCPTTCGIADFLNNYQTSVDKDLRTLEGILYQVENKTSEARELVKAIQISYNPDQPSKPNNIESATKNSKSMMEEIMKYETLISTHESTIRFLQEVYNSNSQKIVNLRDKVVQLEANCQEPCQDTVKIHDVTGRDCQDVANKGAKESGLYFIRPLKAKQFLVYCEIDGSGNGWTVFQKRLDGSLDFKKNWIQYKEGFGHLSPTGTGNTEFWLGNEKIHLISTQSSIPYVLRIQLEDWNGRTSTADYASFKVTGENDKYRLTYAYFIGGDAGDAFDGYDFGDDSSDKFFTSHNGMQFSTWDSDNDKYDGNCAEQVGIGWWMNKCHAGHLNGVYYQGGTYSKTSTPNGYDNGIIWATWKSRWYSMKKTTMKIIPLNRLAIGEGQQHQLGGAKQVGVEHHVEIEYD


Target: T1, bovine fibrinogen, P02672

Row | Protein | dose-dependent fibrinogenolytic assay in vitro: amount for complete digestion of the A alpha chain | dose-dependent fibrinogenolytic assay in vitro: amount for complete digestion of the B beta chain | dose-dependent fibrinogenolytic assay in vitro: amount for complete digestion of the gamma chain | time-dependent fibrinogenolytic assay in vitro: time to complete digestion of the A alpha chain | time-dependent fibrinogenolytic assay in vitro: time to complete digestion of the B beta chain | time-dependent fibrinogenolytic assay in vitro: time to complete digestion of the gamma chain | fibrinogenolytic assay, cleavage pattern on 10% SDS-PAGE: cleavage of the gamma chain | fibrinogenolytic assay, cleavage pattern on 10% SDS-PAGE: start of digestion of the B beta chain | fibrinogenolytic assay, cleavage pattern on 10% SDS-PAGE: time to complete digestion of the A alpha chain | fibrinogenolytic assay, cleavage pattern on 10% SDS-PAGE: time to complete digestion of the B beta chain
1 | recombinant fibrinlysin protein (protein) EQQRFPQRYIKLAIVVDHGMYTKYSSNFKKIRKRVHQMVSNINEMCRPLNIAITLALLDVWSEKDFITVQADAPTTAGLFGDWRERVLLKKKNHDHAQLLTDTNFARNTIGWAYVGRMCDEKYSVAVVKDHSSKVFMVAVTMTHELGHNLGMEHDDKDKCKCDTCIMSAVISDKQSKLFSDCSKDYYQTFLTNDNPQCILNAP | the Aα-chain of fibrinogen was completely digested with 4 µg of the refolded protein | The Bβ-chain was completely digested with 7 µg of the refolded protein | The γ-chain also was completely digested with 21 µg of the refolded protein | the Aα-chain of fibrinogen was completely digested at 5 hr after incubation | The Bβ-chain was completely digested after 7 hrs | the γ-chain was completely digested after 30 hrs | – | – | – | –
2 | Mucroslysin recombinant fusion protein (protein) SSIILESGNVNDYEVVYPRKVSALPKGAVQPKYEDAMQYEFKVNGEAVVLHLEKNKGLFSEDYSETHYSPDGREITTYPSVEDHCYYHGRIHNDADSTASISACDGLKGYFKLQGETYPIEPLELSDSEAHAVFKYENVEKEDEAPKMCGVTQNWESDESIKKASQLYLTPEQQRFPQRYIKLAIVVDHGMYTKYSSNFKKIRKRVHQMVSNINEMCRPLNIAITLALLDVWSEKDFITVQADAPTTAGLFGDWRERVLLKKKNHDHAQLLTDTNFARNTIGWAYVGRMCDEKYSVAVVKDHSSKVFMVAVTMTHELGHNLGMEHDDKDKCKCDTCIMSAVISDKQSKLFSDCSKDYYQTFLTNDNPQCILNAPLRTDTVSTPVSGNEFLEAGEECDCGSPENPCCDAATCKLRPGAQCAEGLCCDQCRFKKKRTICRRARGDNPDDRCTGQSADCPRNGLYG | – | – | – | – | – | – | Mucroslysin protein also exhibited the ability to cleave the γ-chain of fibrinogen | the digestion of the Bβ-chain began at 18 hr | The Aα-chain of fibrinogen was completely digested at 18 hr after incubation | The Bβ-chain was completely digested after 36 hrs
